Laboratory results taken from patent publication US20260049143A1 (KYMAB, published 2026).

Legend:
[1] = biological target: T1, human ICOS-mFc (Chimerigen) (human, UniProt Q9Y6W8 21-140, limits assumed); experiment: HTRF neutralisation of human B7-H2 binding to human ICOS-mFc, n2
T1 construct: Bought fusion; also called hICOS; recombinant human ICOS protein; not shown: mouse Fc
T1 sequence: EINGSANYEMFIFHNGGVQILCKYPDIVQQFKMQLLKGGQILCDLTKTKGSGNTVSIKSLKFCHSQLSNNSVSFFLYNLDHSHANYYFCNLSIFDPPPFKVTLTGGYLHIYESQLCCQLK
Method: (§1) 5 μl of human ICOS-mFc (Chimerigen) at 20 nM (5 nM final) or 5 μl of mouse ICOS-mFc (Chimerigen) at 4 nM (1 nM final) were added to relevant assay wells. Plate was incubated for 1 hour (hr) at room temperature (RT).
(§2) After incubation, assay was read on Envision plate reader (Perkin Elmer) using a standard HTRF protocol. 620 nm and 665 nm channel values were exported to Microsoft Excel and % Delta-F and % Neutralisation calculations performed. Titration curves and IC50 values [M] were plotted using Graphpad (Prism). IC50 values were calculated by first transforming the data using equation X=Log(X). The transformed data was then fitted using nonlinear regression, using fitting algorithm, log (inhibitor) vs. response-variable slope (four parameters).

[2] = biological target: T2, mouse ICOS expressed on CHO cells (mouse, UniProt Q9WVS0 21-141); experiment: flow cytometry, CHO mouse ICOS cells, anti-human IgG AF647, N=1
T2 construct: the cell-expressed form may differ; also called mICOS; CHO mouse ICOS
T2 sequence: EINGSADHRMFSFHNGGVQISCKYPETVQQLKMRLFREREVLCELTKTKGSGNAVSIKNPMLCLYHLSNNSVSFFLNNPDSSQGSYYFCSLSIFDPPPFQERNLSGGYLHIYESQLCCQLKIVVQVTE
Method: (§3) CHO-S cells transfected with either human ICOS or mouse ICOS were resuspended in FACS buffer (PBS+1% w/v BSA+0.1% w/v sodium azide) and transferred to a 96-well V-bottom plate (Greiner) at a density of 1×10⁵ cells per well. mAb and mAb² were titrated in FACS buffer, 1 in 3 dilution across 11 points from a starting working concentration of 400 nM. Plates were centrifuged at 300×g for 3 minutes, supernatant discarded and 50 μL mAb or mAb² solution were added to cells and incubated at 4° C. for 1 hour. Cells were washed with 150 μL of PBS and centrifuged at 300×g for 3 minutes, supernatant was discarded and cell pellet resuspended in 150 μL PBS added. This wash step was repeated twice. […] Cells were incubated for 1 hour at 4° C. in the dark. Cells were washed with 150 μL of PBS and centrifuged at 300 g for 3 minutes, supernatant was discarded and cell pellet resuspended in 150 μL PBS added. This wash step was repeated twice. Cells were fixed with 25 μL 4% v/v paraformaldehyde, incubated for 20 minutes at 4° C., cells were pelleted by centrifugation at 300×g and the supernatant discarded. Cells were washed with 150 μL of PBS and centrifuged at 300 g for 3 minutes, supernatant was discarded and cell pellet resuspended in 150 μL PBS added. This wash step was repeated. Pelleted cells were resuspended in 110 μL 1×PBS.

[3] = biological target: T1, human ICOS-mFc (Chimerigen); experiment: DELFIA ELISA, coated human ICOS-mFc, mean
Method: (§4) Recombinant ICOS proteins, human ICOS-mFc or mouse ICOS-mFc (Chimerigen) were diluted in 1×PBS and added to Black Hi-bind plates (Griener) at 1 μg/ml, 50 μl/well. Recombinant PD-L1 proteins, human PD-L1-Flag-His or mouse-His were diluted in 1×PBS and added to Black Hi-bind plates (Griener) at 4 μg/ml, 50 μl/well. The plates were left overnight at 4° C. The next day plates were washed 3× with 300 μl/well of 1×PBS+0.1% Tween and blocked with 200 μl/well of 1×PBS+1% BSA blocking buffer for 1 hr at RT on a plate shaker. Plates were washed 3× with 300 μl/well of 1×PBS+0.1% Tween.
(§5) However, human-PD-L1 mAb² antibodies were diluted in 1×PBS+0.1% BSA buffer and diluted 1 in 2 from a starting working concentration of 0.066 μM over an 11 point titration. Titrated antibodies were added to the plates, 50 μl/well and left to incubate for 1 hr at R.T on a plate shaker. Plates were washed 3× with 300 μl/well of 1×PBS+0.1% Tween.
(§6) DELFIA® Eu-labelled Anti-human IgG(Perkin-Elmer) was diluted 1:500 in DELFIA Assay buffer (Perkin-Elmer) and added to the assay plate (50 μl/well), left to incubate for 1 hr at RT on a plate shaker. […] After incubation, assay was read on Envision plate reader (Perkin Elmer), Time-resolved fluorescence (TRF) was measured at 615 nm.

[4] = biological target: T3, mouse ICOS-mFc (Chimerigen) (mouse, UniProt Q9WVS0 21-141, limits assumed); experiment: DELFIA ELISA, coated mouse ICOS-mFc, N=1
T3 construct: Bought fusion; also called mICOS; recombinant mouse ICOS protein; not shown: mouse Fc
T3 sequence: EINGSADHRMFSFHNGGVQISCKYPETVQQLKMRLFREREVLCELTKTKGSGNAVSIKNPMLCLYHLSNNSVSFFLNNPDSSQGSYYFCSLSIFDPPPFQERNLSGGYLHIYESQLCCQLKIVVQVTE
Method: as §4, §5, §6

[5] = biological target: T4, Biotinylated human ICOS protein (human, UniProt Q9Y6W8 21-140, limits assumed, biotinylated); experiment: avidity SPR (ProteOn), biotinylated hICOS on NLC chip, antibody analyte; apparent KD from equilibrium
T4 sequence: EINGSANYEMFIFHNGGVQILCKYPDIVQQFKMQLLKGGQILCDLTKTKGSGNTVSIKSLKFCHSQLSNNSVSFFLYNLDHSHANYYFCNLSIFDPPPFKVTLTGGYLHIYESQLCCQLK
Method: (§7) Biotinylated human ICOS protein diluted at 7.5 μg/mL in running buffer (1×HBS-EP+Buffer Technova, cat. No. H8022) was captured on a NLC sensor chip (Bio-Rad, cat No 1765021). The surface was then blocked using biocytin (Sigma Aldrich, cat No B1758) at 1 mg/mL.
(§8) The assay was carried out at 25° C.
(§9) The buffer injection (i.e. 0 nM) was used to double reference the sensorgrams. The analysis was carried out using the equilibrium model inherent to the ProteOn's analysis software for each mAb² construct.

[6] = biological target: T4, Biotinylated human ICOS protein; experiment: avidity SPR (ProteOn), biotinylated hICOS on NLC chip; calculated on-rate
Method: as §7, §8, §9

[7] = biological target: T2, mouse ICOS expressed on CHO cells; experiment: flow cytometry, CHO mouse ICOS cells, anti-human IgG AF647, N=3
Method: as §3

[8] = biological target: T1, human ICOS-mFc (Chimerigen); experiment: HTRF neutralisation of human B7-H2 binding to human ICOS-mFc, average
Method: as §1, §2

[9] = biological target: T1, human ICOS-mFc (Chimerigen); experiment: HTRF neutralisation of human B7-H2 binding to human ICOS-mFc, n3
Method: as §1, §2

B1: STIM003_457 (bispecific antibody, V domains shown, not shown: a dimerising Fc or GST)
VH: EVQLVESGGGVVRPGGSLRLSCVASGVTFDDYGMSWVRQAPGKGLEWVSGINWNGGDTDYSDSVKGRFTISRDNAKNSLYLQMNSLRAEDTALYYCARDFYGSGSYYHVPFDYWGQGILVTVSS
VL: EIVLTQSPGTLSLSPGERATLSCRASQSVSRSYLAWYQQKRGQAPRLLIYGASSRATGIPDRFSGDGSGTDFTLSISRLEPEDFAVYYCHQYDMSPFTFGPGTKVDIK
notes: mAb^2 IgG1; also called ST1M003_457; STIM003_457 mAb^2
B1 gave an IC50 [1] of 0.47 nM, an EC50 [2] of 8.92 nM and an EC50 [3] of 0.43 nM. The EC50 [4] was 0.327 nM, the Kd [5] was 0.9 nM and the kon [6] was 275000 M⁻¹ s⁻¹. For the same binder, the EC50 [7] was 11.9 nM, the IC50 [8] was 0.56 nM and the IC50 [9] was 0.77 nM.

B2: STIM001_457 (bispecific antibody, V domains shown, not shown: a dimerising Fc or GST)
VH: QVQVVQSGAEVKKPGASVKVSCKASGYTFSTFGITWVRQAPGQGLEWMGWISAYNGDTNYAQNLQGRVIMTTDTSTSTAYMELRSLRSDDTAVYYCARSSGHYYYYGMDVWGQGTTVTVSS
VL: DIVMTQSPLSLPVTPGEPASISCRSSQSLLHSNEYNYLDWYLQKPGQSPQLLIFLGSNRASGVPDRFSGSGSGTDFTLKITRVEAEDVGIYYCMQSLQTPLTFGGGTKVEIK
notes: mAb^2 IgG1; also called STIM001_457 mAb^2
B2 showed an IC50 [1] of 1.32 nM, an EC50 [2] of 5.14 nM and an EC50 [3] of 12.6 nM. The EC50 [4] was 23.6 nM, the Kd [5] was 9.2 nM and the kon [6] was 37600 M⁻¹ s⁻¹. The EC50 [7] was 6.97 nM, the IC50 [8] was 1.6 nM and the IC50 [9] was 2.38 nM.
